In publication PMC6321638, “Thermodynamic Characterization of the Ca^2+-Dependent Interaction Between SOUL and ALG-2” (International Journal of Molecular Sciences, 2018):
Changes are numbered by the printed parent chain. In names and notes the source's numbering stands.

B1: His-SOUL1-143 (domain or fragment, mouse, UniProt Q9WU63 1-143, looked up)
chain: MAEEPEPDLGVAEGSEDQALEMPSWKAPEDIDPQPGSYEIRHYGPAKWVSTCVESLDWDSAIQTGFTKLNGYIQGKNEKEMKIKLTAPVTSYVEPGSSPFSESTITISLYIPSEQQPDPPRPSESDVFIEDRAEMTVFVRSFD
notes: source: E. coli BL21(DE3) with pGroESL, purified (Ni-NTA-agarose, Sephadex G-25)
B2: His-SOUL^WT (wild-type SOUL fused to His-tag) (natural protein, mouse, UniProt Q9WU63 1-205, looked up)
chain: MAEEPEPDLGVAEGSEDQALEMPSWKAPEDIDPQPGSYEIRHYGPAKWVSTCVESLDWDSAIQTGFTKLNGYIQGKNEKEMKIKLTAPVTSYVEPGSSPFSESTITISLYIPSEQQPDPPRPSESDVFIEDRAEMTVFVRSFDGFSSGQKNQEQLLTLANILREEGKVFNEKVFYTAGYSSPFQLLDRNNEVWLIQKNEPSVENK
notes: Cloned into the Nde I and Sal I sites of pET28a(+); this probably gives an N-terminal His-tag with a thrombin site (surmised); Dimer by gel filtration; also called mSOUL; source: E. coli BL21(DE3) with pGroESL, purified (Ni-NTA-agarose, Sephadex G-25)
B3: GST-ALG-2 L52A (natural protein, mouse, UniProt P12815 1-191, looked up)
chain: MAAYSYRPGPGGGPGPAAGAALPDQSFLWNVFQRVDKDRSGVISDNELQQAASNGTWTPFNPVTVRSIISMFDRENKAGVNFSEFTGVWKYITDWQNVFRTYDRDNSGMIDKNELKQALSGFGYRLSDQFHDILIRKFDRQGRGQIAFDDFIQGCIVLQRLTDIFRRYDTDQDGWIQVSYEQYLSMVFSIV
notes: ALG-2 (PDCD6), murine, 1-191 amino acids with L52A (pocket 3); source: E. coli, purified (as GST-ALG-2)
B4: delta3-23ALG-2^∆GF (domain or fragment, mouse, UniProt P12815 1-191, looked up)
chain: MADQSFLWNVFQRVDKDRSGVISDNELQQALSNGTWTPFNPVTVRSIISMFDRENKAGVNFSEFTGVWKYITDWQNVFRTYDRDNSGMIDKNELKQALSGYRLSDQFHDILIRKFDRQGRGQIAFDDFIQGCIVLQRLTDIFRRYDTDQDGWIQVSYEQYLSMVFSIV
notes: ALG-2 (PDCD6), murine, deletion of the N-terminal 3-23 amino acids and of Gly121 and Phe122 (splice variant); numbers count on full-length ALG-2^WT; N-terminus as for m3; source: E. coli, purified (as delta3-23ALG-2)
B5: delta3-23ALG-2^WT (domain or fragment, mouse, UniProt P12815 1-191, looked up)
chain: MADQSFLWNVFQRVDKDRSGVISDNELQQALSNGTWTPFNPVTVRSIISMFDRENKAGVNFSEFTGVWKYITDWQNVFRTYDRDNSGMIDKNELKQALSGFGYRLSDQFHDILIRKFDRQGRGQIAFDDFIQGCIVLQRLTDIFRRYDTDQDGWIQVSYEQYLSMVFSIV
notes: ALG-2 (PDCD6), murine, with deletion of the N-terminal 3-23 amino acids (the hydrophobic 21 residues); the plasmid paragraph calls it 24-191 amino acids, without tag; source: E. coli BL21-CodonPlus(DE3)-(RIPL), purified (Ca2+ precipitation, HiTrap Q, Sephacryl S-200 HR)
B6: GST-ALG-2^∆GF (natural protein, mouse, UniProt P12815 1-191, looked up)
chain: MAAYSYRPGPGGGPGPAAGAALPDQSFLWNVFQRVDKDRSGVISDNELQQALSNGTWTPFNPVTVRSIISMFDRENKAGVNFSEFTGVWKYITDWQNVFRTYDRDNSGMIDKNELKQALSGYRLSDQFHDILIRKFDRQGRGQIAFDDFIQGCIVLQRLTDIFRRYDTDQDGWIQVSYEQYLSMVFSIV
notes: ALG-2 (PDCD6), murine, natural splice variant with deletion of Gly121 and Phe122; made by PCR-based mutagenesis of the 1-191 construct; also called ALG-2^ΔGF; source: E. coli, purified (as GST-ALG-2)
B7: GST-ALG-2^WT (wild-type ALG-2 fused to GST-tag) (natural protein, mouse, UniProt P12815 1-191, looked up)
chain: B3 chain with A52L
notes: ALG-2 (apoptosis-linked gene 2, PDCD6), murine, 1-191 amino acids; Cloned into the BamH I and Sal I sites of pGEX-4T-2; GST is probably N-terminal (surmised); also called apoptosis-linked gene 2 protein; PDCD6; source: E. coli BL21-CodonPlus(DE3)-(RIPL), purified (ammonium sulfate, Glutathione Sepharose, Sephadex G-25)
B8: GST-ALG-2 F85A (natural protein, mouse, UniProt P12815 1-191, looked up)
chain: B3 chain with A52L, F85A
notes: ALG-2 (PDCD6), murine, 1-191 amino acids with F85A (pocket 3); source: E. coli, purified (as GST-ALG-2)
B9: GST-ALG-2 I92A (natural protein, mouse, UniProt P12815 1-191, looked up)
chain: B3 chain with A52L, I92A
notes: ALG-2 (PDCD6), murine, 1-191 amino acids with I92A (pocket 3); source: E. coli, purified (as GST-ALG-2)
B10: GST-ALG-2 W89A (natural protein, mouse, UniProt P12815 1-191, looked up)
chain: B3 chain with A52L, W89A
notes: ALG-2 (PDCD6), murine, 1-191 amino acids with W89A (pocket 3); source: E. coli, purified (as GST-ALG-2)
B11: His-SOUL mutant (36-111/126-205) without two PRRs (domain or fragment, mouse, UniProt Q9WU63 36-205, looked up)
chain: GSYEIRHYGPAKWVSTCVESLDWDSAIQTGFTKLNGYIQGKNEKEMKIKLTAPVTSYVEPGSSPFSESTITISLYIDVFIEDRAEMTVFVRSFDGFSSGQKNQEQLLTLANILREEGKVFNEKVFYTAGYSSPFQLLDRNNEVWLIQKNEPSVENK
notes: as for B1
B12: His-SOUL1-111 (domain or fragment, mouse, UniProt Q9WU63 1-111, looked up)
chain: MAEEPEPDLGVAEGSEDQALEMPSWKAPEDIDPQPGSYEIRHYGPAKWVSTCVESLDWDSAIQTGFTKLNGYIQGKNEKEMKIKLTAPVTSYVEPGSSPFSESTITISLYI
notes: SOUL (HEBP2), murine, residues 1-111; source: E. coli BL21(DE3) with pGroESL, purified (Ni-NTA-agarose, Sephadex G-25)

How the values were obtained:
delta3-23ALG-2^WT [1] = biological target: B5; experiment: ITC; His-SOUL (130 or 260 µM) injected into delta3-23ALG-2 (5 or 10 µM); 25 °C, pH 7.5, buffer C (25 mM HEPES, 150 mM NaCl, 10% glycerol) with 15 µM CaCl2 and 0.25% Tween 20; one-set-of-sites model (sequential-binding-sites model also tried); settings: both partners purified
delta3-23ALG-2^WT [2] = biological target: B5; experiment: as above; settings: both partners purified; remark: listed apart in the source
delta3-23ALG-2^∆GF = biological target: B4; experiment: as above; settings: both partners purified
delta3-23ALG-2^WT [3] = biological target: B5; experiment: SEC; Sephacryl-S-200 HR (150 mL), 1 mL of each protein sample (5 µM), buffer B with 20 µM CaCl2; fractions by SDS-PAGE; settings: both partners purified
[4] = biological target: the molecule itself; experiment: as above
[5] = biological target: B2; experiment: pull-down; GST-pulldown: purified His-SOUL (5 µM) and GST-ALG-2 (5 µM) with Glutathione Sepharose 4B in buffer B (100 mM Tris-HCl pH 7.5, 100 mM NaCl, 10% glycerol) with 20 µM CaCl2 (or various amounts of Ca2+), 30 min at 4 °C; SDS-PAGE, Coomassie; settings: both partners purified
[6] = biological target: B2; experiment: ITC; His-SOUL (130 or 260 µM) injected into delta3-23ALG-2 (5 or 10 µM); 25 °C, pH 7.5, buffer C (25 mM HEPES, 150 mM NaCl, 10% glycerol) with 15 µM CaCl2 and 0.25% Tween 20; one-set-of-sites model (sequential-binding-sites model also tried); settings: both partners purified
[7] = biological target: B7; experiment: pull-down; GST-pulldown: purified His-SOUL (5 µM) and GST-ALG-2 (5 µM) with Glutathione Sepharose 4B in buffer B (100 mM Tris-HCl pH 7.5, 100 mM NaCl, 10% glycerol) with 20 µM CaCl2 (or various amounts of Ca2+), 30 min at 4 °C; SDS-PAGE, Coomassie; settings: both partners purified

B1
Kd (delta3-23ALG-2^WT [1]): 1300 nM
stoichiometry N (delta3-23ALG-2^WT [1]): 1

B2
dH (delta3-23ALG-2^WT [2]): -17.9 ± 0.7 kcal/mol
stoichiometry N (delta3-23ALG-2^WT [2]): 1.16 ± 0.02
dH (delta3-23ALG-2^∆GF): -19.8 ± 2 kcal/mol
stoichiometry N (delta3-23ALG-2^∆GF): 1 ± 0.07
Kd of the first binding (sequential-binding-sites model) (delta3-23ALG-2^WT [1]): 37 nM
Kd of the second binding (sequential-binding-sites model) (delta3-23ALG-2^WT [1]): 40 nM
stoichiometry N (delta3-23ALG-2^WT [3]): 1
stoichiometry N [4]: 2

B3
binding result [5]: binds

B4
Kd [6]: 62 ± 13.7 nM

B5
Kd [6]: 32.4 ± 6.6 nM

B6
binding result [5]: binds

B7
binding result [5]: binds

B8
binding result [5]: binds

B9
binding result [5]: binds

B10
binding result [5]: binds

B11
binding result [7]: binds

B12
binding result [7]: binds
